Source: the RNAGym collection of RNA variant scans (doi:10.7554/elife.90254)

B1: OR4K15 (parent)
chain: GUUAACGGUCAUAGGCCAUGGAAACUAGGAGCACCAUUUCGCUGCCAGUGAAGAAAUGAACAAAGAAAAUCUGGGCCAGGCAGGCAUCAAAAGAAAUAGUCUUGCGCUCAACCAGAAAGUCUGUAAUCAUUUUAAGGGUA

Variants of: B1
Test: self-cleavage, relative activity (ratio to wild type); higher = more cleavage; in vitro, sequencing; the parent is a self-cleaving ribozyme
GUUAACGGUCAUAGGCCAUGGAAACUAGGAGUACCAUUUCGCUGCCAGUGAAGAAAUGAACAAAGAAAAUCUGGGCCAGGCAGGCAUCAAAAGAAAUAGUCUUGCGCUCGACCAGAAAGUCUGUAAUCAUUUUAAGGGUA [C32U A110G] gave a self-cleavage of 0.23.
With GUUAACGGUCAUAGGCCAUGGAAACUAGGAGCCCCAUUUCGCUGCCAGUGAAGAAAUGAACAAAGAAAAUCUGGGCCAGGCAGGCAUCAAAAGAAAUAGUCUUGCGCUCAACCAGAAAGUCUGUAAUCAUUUUAAGGGUU [A33C A140U] the self-cleavage was 1.4.
Work on GUUAACGGUCAUAGGCCAUGGAAACUAGGAGCCCCAUUUCGCUGCCGGUGAAGAAAUGAACAAAGAAAAUCUGGGCCAGGCAGGCAUCAAAAGAAAUAGUCUUGCGCUCAACCAGAAAGUCUGUAAUCAUUUUAAGGGUA [A33C A47G] yielded a self-cleavage of 1.05.
Work on GUUAACGGUCAUAGGCCAUGGAAACUAGGAGCCCCAUUUCGCUGCCAGUGAAGAAAUGAACAAAGAAAGUCUGGGCCAGGCAGGCAUCAAAAGAAAUAGUCUUGCGCUCAACCAGAAAGUCUGUAAUCAUUUUAAGGGUA [A33C A69G] yielded a self-cleavage of 1.71.
For GUUAACGGUCAUAGGCCAUGGAAACUAGGAGUACCAUUUCGCUGCCAGUGAAGAAAUGAACAAAGAAAAUCUGGGCCAGGCAGGCGUCAAAAGAAAUAGUCUUGCGCUCAACCAGAAAGUCUGUAAUCAUUUUAAGGGUA [C32U A86G], the self-cleavage was 1.82.
For GUUAACGGUCAUAGGCCAUGGAAACUAGGAGUACCAUUUUGCUGCCAGUGAAGAAAUGAACAAAGAAAAUCUGGGCCAGGCAGGCAUCAAAAGAAAUAGUCUUGCGCUCAACCAGAAAGUCUGUAAUCAUUUUAAGGGUA [C32U C40U], the self-cleavage was 2.05.
In the case of GUUAACGGUCAUAGGCCAUGGAAACUAGGAGUACCAUUUCGCUGCCAGUGAAGAAACGAACAAAGAAAAUCUGGGCCAGGCAGGCAUCAAAAGAAAUAGUCUUGCGCUCAACCAGAAAGUCUGUAAUCAUUUUAAGGGUA [C32U U57C], the self-cleavage is reported as 1.07.
In the case of GUUAACGGUCAUAGGCCAUGGAAACUAGGAGCCCCAUUUCGCUGCCAGUGAAGAAAUGAACAAAGAAAAUCUGAGCCAGGCAGGCAUCAAAAGAAAUAGUCUUGCGCUCAACCAGAAAGUCUGUAAUCAUUUUAAGGGUA [A33C G74A], the self-cleavage is reported as 0.38.
In the case of GUUAACGGUCAUAGGCCAUGGAAACUAGGAGCGCCAUUUCGCUGCCAGUGAAGAAAUGAACAACGAAAAUCUGGGCCAGGCAGGCAUCAAAAGAAAUAGUCUUGCGCUCAACCAGAAAGUCUGUAAUCAUUUUAAGGGUA [A33G A64C], the self-cleavage is reported as 1.17.
GUUAACGGUCAUAGGCCAUGGAAACUAGGAGCGCCAUUUCGCUGCCAGUGAAGAAAUGAACAAUGAAAAUCUGGGCCAGGCAGGCAUCAAAAGAAAUAGUCUUGCGCUCAACCAGAAAGUCUGUAAUCAUUUUAAGGGUA [A33G A64U] showed a self-cleavage of 0.99.
Variant GUUAACGGUCAUAGGCCAUGGAAACUAGGAGUACCAUUUCGCUGCCAGUGAAGAAAUGAACAAAGAAAAUCUGGGCCAGGCAGGCAUCAAAAGAAAUAGUCUUGCGCUCAACCAGAAAGUUUGUAAUCAUUUUAAGGGUA [C32U C121U] has a self-cleavage of 2.22.
GUUAACGGUCAUAGGCCAUGGAAACUAGGAGUACCAUUUCGCUGCCAGUGAAGAAAUGAACAAAGAGAAUCUGGGCCAGGCAGGCAUCAAAAGAAAUAGUCUUGCGCUCAACCAGAAAGUCUGUAAUCAUUUUAAGGGUA [C32U A67G] gave a self-cleavage of 1.67.
GUUAACGGUCAUAGGCCAUGGAAACUAGGAGUACCAUUUCGCUGCCAGUGAAGAAAUGAACAAAGAAAAUCUGGGCCAGGCAGGCAUCAAAAGAAAUAGUCUUGCGCUCAGCCAGAAAGUCUGUAAUCAUUUUAAGGGUA [C32U A111G] showed a self-cleavage of 0.01.
In the case of GUUAACGGUCAUAGGCCAUGGAAACUAGGAGUACCAUUUCGCUGCCAGUGAAGAAAUGAACAAAGAAAAUCUGGGCCAGGCAGGCAUCAAAAGGAAUAGUCUUGCGCUCAACCAGAAAGUCUGUAAUCAUUUUAAGGGUA [C32U A94G], the self-cleavage is reported as 1.5.
GUUAACGGUCAUAGGCCAUGGAAACUAGGAGCCCCAUUUCGCUGCCAGUGAAGAAAUGAACAAAGAAAAUCUAGGCCAGGCAGGCAUCAAAAGAAAUAGUCUUGCGCUCAACCAGAAAGUCUGUAAUCAUUUUAAGGGUA [A33C G73A] showed a self-cleavage of 0.33.
In the case of GUUAACGGUCAUAGGCCAUGGAAACUAGGAGCCCCAUCUCGCUGCCAGUGAAGAAAUGAACAAAGAAAAUCUGGGCCAGGCAGGCAUCAAAAGAAAUAGUCUUGCGCUCAACCAGAAAGUCUGUAAUCAUUUUAAGGGUA [A33C U38C], the self-cleavage is reported as 1.53.
Work on GUUAACGGUCAUAGGCCAUGGAAACUAGGAGCCCCAUUUCGCUGCCAGUGAAGAAAUGAACAAAGAUAAUCUGGGCCAGGCAGGCAUCAAAAGAAAUAGUCUUGCGCUCAACCAGAAAGUCUGUAAUCAUUUUAAGGGUA [A33C A67U] yielded a self-cleavage of 1.28.
GUUAACGGUCAUAGGCCAUGGAAACUAGGAGUACCAUCUCGCUGCCAGUGAAGAAAUGAACAAAGAAAAUCUGGGCCAGGCAGGCAUCAAAAGAAAUAGUCUUGCGCUCAACCAGAAAGUCUGUAAUCAUUUUAAGGGUA [C32U U38C] gave a self-cleavage of 1.02.
For GUUAACGGUCAUAGGCCAUGGAAACUAGGAGCGCCAUUUCGCUGCCAGUGAAGUAAUGAACAAAGAAAAUCUGGGCCAGGCAGGCAUCAAAAGAAAUAGUCUUGCGCUCAACCAGAAAGUCUGUAAUCAUUUUAAGGGUA [A33G A54U], the self-cleavage was 1.04.
Work on GUUAACGGUCAUAGGCCAUGGAAACUAGGAGCCCCAUUUCGCUGCCAGUGAAGAAAUGAACAAAGAAAAUCUGGGCCAGGCAGGCAUCAAAAGAAAUAGUCCUGCGCUCAACCAGAAAGUCUGUAAUCAUUUUAAGGGUA [A33C U102C] yielded a self-cleavage of 2.22.
In the case of GUUAACGGUCAUAGGCCAUGGAAACUAGGAGCGCCAUUUCGCUGCCAGUGAAGAAAUGAACAAAGAUAAUCUGGGCCAGGCAGGCAUCAAAAGAAAUAGUCUUGCGCUCAACCAGAAAGUCUGUAAUCAUUUUAAGGGUA [A33G A67U], the self-cleavage is reported as 1.36.
For GUUAACGGUCAUAGGCCAUGGAAACUAGGAGUACCAUUUCGCUGCCAGUGAAGAAAUGAACAAAGAAAACCUGGGCCAGGCAGGCAUCAAAAGAAAUAGUCUUGCGCUCAACCAGAAAGUCUGUAAUCAUUUUAAGGGUA [C32U U70C], the self-cleavage was 0.69.
GUUAACGGUCAUAGGCCAUGGAAACUAGGAGUACCAUUUCGCUGCCAGUGAAGAAAUGAACAAAGAAAGUCUGGGCCAGGCAGGCAUCAAAAGAAAUAGUCUUGCGCUCAACCAGAAAGUCUGUAAUCAUUUUAAGGGUA [C32U A69G] gave a self-cleavage of 1.21.
GUUAACGGUCAUAGGCCAUGGAAACUAGGAGCCCCAUUUCGCUGCCAGUGAAGAAAUGAACAAAGAAAAUCUGGGCCAGGCAGGCAUCAAAAGAAAUAGUCUUGCGCUCAACCAGAAAGUCCGUAAUCAUUUUAAGGGUA [A33C U122C] gave a self-cleavage of 1.09.
Variant GUUAACGGUCAUAGGCCAUGGAAACUAGGAGCCCCAUUUCGCUGCCAGUGAAGAAAUGAACAAAGAAAAUCUGGGCCAGGCAGGCAUCAAAAGAAAUAGUCUUGCGCUCAACCAGAAAGUCAGUAAUCAUUUUAAGGGUA [A33C U122A] has a self-cleavage of 1.61.
Variant GUUAACGGUCAUAGGCCAUGGAAACUAGGAGCCCCAUUUCGCUGCCAGUUAAGAAAUGAACAAAGAAAAUCUGGGCCAGGCAGGCAUCAAAAGAAAUAGUCUUGCGCUCAACCAGAAAGUCUGUAAUCAUUUUAAGGGUA [A33C G50U] has a self-cleavage of 1.41.
In the case of GUUAACGGUCAUAGGCCAUGGAAACUAGGAGCCCCAUUUCGCUGCCAGUGAAGAAAUGAACAAAGAAAAUCUGGGCCAGGCAGGCAUCAAAAGAAAUAGUCUUGCGCUCAACCAGAAAGUCUGUAAUCAUUCUAAGGGUA [A33C U132C], the self-cleavage is reported as 1.46.
Work on GUUAACGGUCAUAGGCCAUGGAAACUAGGAGUACCAUUUCGCUGGCAGUGAAGAAAUGAACAAAGAAAAUCUGGGCCAGGCAGGCAUCAAAAGAAAUAGUCUUGCGCUCAACCAGAAAGUCUGUAAUCAUUUUAAGGGUA [C32U C45G] yielded a self-cleavage of 1.23.
With GUUAACGGUCAUAGGCCAUGGAAACUAGGAGUACCAUUUCGCUGCCAGUGAAGAAAUGAGCAAAGAAAAUCUGGGCCAGGCAGGCAUCAAAAGAAAUAGUCUUGCGCUCAACCAGAAAGUCUGUAAUCAUUUUAAGGGUA [C32U A60G] the self-cleavage was 1.38.
GUUAACGGUCAUAGGCCAUGGAAACUAGGAGCGCCAUUUCGCUGCCAGUGAAGAACUGAACAAAGAAAAUCUGGGCCAGGCAGGCAUCAAAAGAAAUAGUCUUGCGCUCAACCAGAAAGUCUGUAAUCAUUUUAAGGGUA [A33G A56C] showed a self-cleavage of 0.41.
In the case of GUUAACGGUCAUAGGCCAUGGAAACUAGGAGCCCCAUUUCGCUGCCAGUGAAGAAAUGAACAAAGAAAAUCUGGGCCAGGCAGGCAUCGAAAGAAAUAGUCUUGCGCUCAACCAGAAAGUCUGUAAUCAUUUUAAGGGUA [A33C A89G], the self-cleavage is reported as 1.31.
GUUAACGGUCAUAGGCCAUGGAAACUAGGAGCCCCAUUUCGCUGCCAGUGAAGAAAUGAACAAAGUAAAUCUGGGCCAGGCAGGCAUCAAAAGAAAUAGUCUUGCGCUCAACCAGAAAGUCUGUAAUCAUUUUAAGGGUA [A33C A66U] showed a self-cleavage of 1.52.
In the case of GUUAACGGUCAUAGGCCAUGGAAACUAGGAGUACCAUUUCGCUGCCAGUGAAGAAAUGAACAAAGAAAAUCUGGGCCAGGCAGGCAUCAAAAGAGAUAGUCUUGCGCUCAACCAGAAAGUCUGUAAUCAUUUUAAGGGUA [C32U A95G], the self-cleavage is reported as 2.11.
For GUUAACGGUCAUAGGCCAUGGAAACUAGGAGUACCAUUUCGCUGCCAGUGAAGAAAUGAACAAAGAAAAUCUGGGCCAGGCAGGCAUCAAAAGAAAUAGUCUUGCGCUCAACCAGAAAGUCUGAAAUCAUUUUAAGGGUA [C32U U124A], the self-cleavage was 0.41.
In the case of GUUAACGGUCAUAGGCCAUGGAAACUAGGAGUACCAUUUCGCUGCCAGUGAAGAAAUGAACAAAGAAAAUCUGGGCCGGGCAGGCAUCAAAAGAAAUAGUCUUGCGCUCAACCAGAAAGUCUGUAAUCAUUUUAAGGGUA [C32U A78G], the self-cleavage is reported as 0.53.
Work on GUUAACGGUCAUAGGCCAUGGAAACUAGGAGUACCAUUUCGCUGCCAGUGAAGAAAUGAACAAAGAAAAUCUGGGCCUGGCAGGCAUCAAAAGAAAUAGUCUUGCGCUCAACCAGAAAGUCUGUAAUCAUUUUAAGGGUA [C32U A78U] yielded a self-cleavage of 0.38.
With GUUAACGGUCAUAGGCCAUGGAAACUAGGAGCCCCAUUUCGCUGCCAGUGAAGAAAUGAACAAAGAAAAUCUGGGCCAGGCAGGCAUCAAAAGAAAUAGUCUUGCGCUCAACCAGAAAGUCUGGAAUCAUUUUAAGGGUA [A33C U124G] the self-cleavage was 1.02.
GUUAACGGUCAUAGGCCAUGGAAACUAGGAGUACCAUUUCGCUGCCAGUGAAGAAAUGAACAAAGAAAAUCUGGGCCAGGCAGGCAUCAAAAGAAAUAGUCCUGCGCUCAACCAGAAAGUCUGUAAUCAUUUUAAGGGUA [C32U U102C] gave a self-cleavage of 1.73.
Work on GUUAACGGUCAUAGGCCAUGGAAACUAGGAGUACCAUUUCGCUGCCAGUGAAGAAAUGAACAAAGAAAAUCCGGGCCAGGCAGGCAUCAAAAGAAAUAGUCUUGCGCUCAACCAGAAAGUCUGUAAUCAUUUUAAGGGUA [C32U U72C] yielded a self-cleavage of 0.2.
With GUUAACGGUCAUAGGCCAUGGAAACUAGGAGCGCCAUUUCGCUGCCAGUGAAGAAAUGAGCAAAGAAAAUCUGGGCCAGGCAGGCAUCAAAAGAAAUAGUCUUGCGCUCAACCAGAAAGUCUGUAAUCAUUUUAAGGGUA [A33G A60G] the self-cleavage was 0.98.
Variant GUUAACGGUCAUAGGCCAUGGAAACUAGGAGCCCCAUUUCGCUGCCAGUGAAGAAAUGAACAAAGAAAAUCUGGGCCAGGCAGGCAUCAAAAGAAAUAGUCUUGCGCUCAACCAGAAAGUCUGUAGUCAUUUUAAGGGUA [A33C A126G] has a self-cleavage of 1.8.
